Results: EP4714970A1 (Akeso Biopharma Co., Ltd., dated 2026)
Positions count from the first letter of the chain named. Numbers in names are those of the source. Read-outs that look alike come from different tables or passages of the source.

Experiments:
[1] = biological target: T1, human LAG3-mG1Fc (human; mouse, UniProt P18627 23-450, limits assumed); experiment: ELISA, LAG3-mG1Fc coated 2 ug/mL
T1 construct: Made by Akeso; also called huLAG3-mG1Fc; HuLAG3-mG1Fc; not shown: mouse IgG1 Fc (mG1Fc); limits not readable
T1 sequence (looked up): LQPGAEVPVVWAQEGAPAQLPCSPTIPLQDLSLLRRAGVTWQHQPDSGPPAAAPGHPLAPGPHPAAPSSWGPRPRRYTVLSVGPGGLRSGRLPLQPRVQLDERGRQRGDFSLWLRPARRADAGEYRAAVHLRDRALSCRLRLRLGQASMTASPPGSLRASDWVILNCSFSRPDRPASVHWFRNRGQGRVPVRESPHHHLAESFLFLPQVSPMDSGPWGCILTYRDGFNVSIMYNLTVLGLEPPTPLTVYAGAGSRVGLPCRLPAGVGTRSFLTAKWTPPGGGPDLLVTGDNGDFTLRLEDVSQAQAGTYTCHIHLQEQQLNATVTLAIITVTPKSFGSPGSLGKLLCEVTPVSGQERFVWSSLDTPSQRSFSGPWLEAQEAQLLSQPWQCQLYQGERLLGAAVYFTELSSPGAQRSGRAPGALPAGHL

[2] = biological target: T1, human LAG3-mG1Fc; experiment: competitive flow cytometry, 3 nM LAG3-mG1Fc on Raji cells (competitor MHC II)
[3] = biological target: T1, human LAG3-mG1Fc; experiment: as above; remark: listed apart in the source
[4] = biological target: T2, human LAG3 on cell surface (293T-LAG3 cells; Jurkat-NFAT-PD1-LAG3 cells) (human, UniProt P18627 23-525); experiment: flow cytometry on 293T-LAG3 cells
T2 construct: whole, on cells; also called huLAG3FL
T2 sequence (looked up): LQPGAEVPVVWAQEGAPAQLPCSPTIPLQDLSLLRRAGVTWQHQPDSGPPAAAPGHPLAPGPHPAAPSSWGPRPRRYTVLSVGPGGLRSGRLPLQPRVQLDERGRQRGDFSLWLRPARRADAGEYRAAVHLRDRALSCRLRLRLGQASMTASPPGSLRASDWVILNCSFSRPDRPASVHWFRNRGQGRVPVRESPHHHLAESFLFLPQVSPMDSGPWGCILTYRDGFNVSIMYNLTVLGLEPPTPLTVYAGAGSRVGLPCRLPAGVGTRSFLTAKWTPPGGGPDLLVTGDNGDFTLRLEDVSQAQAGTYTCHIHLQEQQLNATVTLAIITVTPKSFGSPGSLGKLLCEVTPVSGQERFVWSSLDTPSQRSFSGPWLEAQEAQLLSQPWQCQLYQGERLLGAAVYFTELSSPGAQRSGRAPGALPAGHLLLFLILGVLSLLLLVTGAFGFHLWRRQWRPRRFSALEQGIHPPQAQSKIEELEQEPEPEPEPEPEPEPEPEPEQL

[5] = biological target: T2, human LAG3 on cell surface (293T-LAG3 …); experiment: flow cytometry on 293T-LAG3 cells; remark: listed apart in the source
[6] = biological target: T1, human LAG3-mG1Fc; experiment: BLI (Fortebio), antigen on AMC sensor, antibody in solution, 30 C, 1:1 fit
[7] = biological target: T3, CD73 on U87-MG cell membrane surface (UniProt P21589 27-549, limits assumed); experiment: flow cytometry on U87-MG cells
T3 construct: whole, on cells; also called CD73 endogenously expressed by U87-MG
T3 sequence (looked up): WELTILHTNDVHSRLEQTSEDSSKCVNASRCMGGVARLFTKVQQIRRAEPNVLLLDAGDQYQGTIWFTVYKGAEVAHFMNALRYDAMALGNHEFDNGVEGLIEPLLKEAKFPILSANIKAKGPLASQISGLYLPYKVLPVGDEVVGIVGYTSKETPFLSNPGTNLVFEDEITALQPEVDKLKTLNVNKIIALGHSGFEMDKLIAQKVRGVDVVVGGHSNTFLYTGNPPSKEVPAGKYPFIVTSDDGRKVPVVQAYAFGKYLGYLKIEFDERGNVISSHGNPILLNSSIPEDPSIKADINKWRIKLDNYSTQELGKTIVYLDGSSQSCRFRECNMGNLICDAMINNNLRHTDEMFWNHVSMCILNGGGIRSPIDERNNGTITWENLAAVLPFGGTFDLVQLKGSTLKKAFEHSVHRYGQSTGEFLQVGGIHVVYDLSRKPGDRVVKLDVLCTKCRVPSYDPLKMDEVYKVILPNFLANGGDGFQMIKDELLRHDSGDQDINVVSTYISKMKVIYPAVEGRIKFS

[8] = biological target: T3, CD73 on U87-MG cell membrane surface; experiment: cell-based or functional assay
[9] = biological target: T4, hNT5E(1-552)-His (human, UniProt P21589 27-552); experiment: ELISA, NT5E-His coated 1 ug/mL
T4 construct: also called NT5E-His; not shown: His tag
T4 sequence (looked up): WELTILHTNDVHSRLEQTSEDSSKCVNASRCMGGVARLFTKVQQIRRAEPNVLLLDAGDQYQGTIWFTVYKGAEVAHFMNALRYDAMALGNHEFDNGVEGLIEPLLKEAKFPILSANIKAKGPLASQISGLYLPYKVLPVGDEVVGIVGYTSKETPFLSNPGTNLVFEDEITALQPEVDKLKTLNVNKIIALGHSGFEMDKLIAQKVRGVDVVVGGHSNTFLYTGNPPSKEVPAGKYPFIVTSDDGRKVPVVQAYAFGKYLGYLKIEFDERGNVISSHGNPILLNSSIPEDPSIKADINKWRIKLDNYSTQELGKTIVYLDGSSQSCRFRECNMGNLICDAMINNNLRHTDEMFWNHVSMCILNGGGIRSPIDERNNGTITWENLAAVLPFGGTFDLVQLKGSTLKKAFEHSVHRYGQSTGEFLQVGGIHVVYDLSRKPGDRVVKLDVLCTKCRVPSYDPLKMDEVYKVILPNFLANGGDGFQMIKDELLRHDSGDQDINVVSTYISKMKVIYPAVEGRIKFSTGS

[10] = biological target: T4, hNT5E(1-552)-His; experiment: BLI (Fortebio), antigen on HIS1K sensor, antibody in solution, 37 C, 1:1 fit
[11] = biological target: T4, hNT5E(1-552)-His; experiment: ELISA, NT5E-His coated 1 ug/mL; remark: listed apart in the source
[12] = biological target: T4, hNT5E(1-552)-His; experiment: ELISA, NT5E-His coated 1 ug/mL; remark: listed apart in the source

B1: H9L8(hG4WT) (antibody, human IgG4 S228P, kappa, V domains shown)
VH: QVQLQQWGAGLLKPSETLSLTCAVYGGSISDYYWNWIRQPPGKGLEWIGEINYRGTTNSNPSLKSRVTLSLDTSKNQFSLKLRSVTAADTAVYYCAFGYSDYEYDWFDPWGQGTLVTVSS
VL: EIVLTQSPATLSLSPGERATLSCRASQTISSYLAWYQQKPGQAPRLLIYDASNRATGIPARFSGSGSGTDFTLTISSLEPEDFAVYYCQQRSNWPITFGQGTNLEIKR
notes: Humanized anti-LAG3 IgG4 (wild type), kappa
EC50 [1]: 0.123 nM
EC50 [2]: 1.44 nM
EC50 [3]: 1.46 nM
EC50 [4]: 4.86 nM
EC50 [5]: 0.501 nM
Kd [6]: 0.3 nM
Maximum signal height of analyte (nm) [6]: 0.878 nm
S E (kdis) [6]: 2.94e-06 s⁻¹
S E (kon) [6]: 2330 M⁻¹ s⁻¹
koff [6]: 0.000121 s⁻¹
kon [6]: 405000 M⁻¹ s⁻¹

B2: H9L10(hG4WT) (antibody, human IgG4 S228P, kappa, V domains shown)
VH: B1 VH
VL: B1 VL with T28S, A51G
notes: Humanized anti-LAG3 IgG4 (wild type), kappa; also called HIL10(hG4WT)
EC50 [1]: 0.14 nM
EC50 [3]: 1.44 nM
EC50 [4]: 3.92 nM

B3: H9L9(hG4WT) (antibody, human IgG4 S228P, kappa, V domains shown)
VH: B1 VH
VL: B1 VL with A51G, I96L
notes: as for B1
EC50 [1]: 0.129 nM
EC50 [3]: 1.48 nM
EC50 [4]: 4.53 nM

B4: CPI-006 (antibody, V domains shown)
VH: QVQLVQSGAEVEKPGASVKVSCKASGYTFTSYWITWVRQAPGQGLEWMGDIYPGSGNTNYNEKFKTRVTITADKSTSTAYMELSSLRSEDTAVYYCAKEGGLTTEDYALDYWGQGTLVTVSS
VL: EIVLTQSPATLSLSPGERATLSCRASKNVSTSGYSYMHWYQQKPGQAPRLLIYLASNLESGIPPRFSGSGYGTDFTLTINNIESEDAAYYFCQHSRELPFTFGQGTKVEIKR
EC50 [7]: 8.47 nM

B5: MEDI9447 (antibody, V domains shown)
VH: EVQLLESGGGLVQPGGSLRLSCAASGFTFSSYAYSWVRQAPGKGLEWVSAISGSGGRTYYADSVKGRFTISRDNSKNTLYLQMNSLRAEDTAVYYCARLGYGRVDEWGRGTLVTVSS
VL: QSVLTQPPSASGTPGQRVTISCSGSLSNIGRNPVNWYQQLPGTAPKLLIYLDNLRLSGVPDRFSGSKSGTSASLAISGLQSEDEADYYCATWDDSHPGWTFGGGTKLTVL
EC50 (nM), inhibition of CD73 enzyme activity on U87-MG cells [8]: 0.152 nM
Maximum inhibition rate (%) of CD73 enzyme activity on U87-MG cells [8]: 58.3%

B6: 19F3H2L3(hG1DM) (antibody, human IgG1, kappa, L234A L235A, V domains shown)
VH: QVQLVQSGAEVVKPGASVKVSCKASGYSFTGYTMNWVRQAPGQNLEWIGLINPYNAGTSYNQKFQGKVTLTVDKSTSTAYMELSSLRSEDTAVYYCARSEYRYGGDYFDYWGQGTTLTVSS
VL: DIVMTQSPSSLAVSVGERVTISCKSSQSLLNSSNQKNYLAWYQQKPGQAPKLLIYFASTRESGVPDRFSGSGSGTDFTLTISSLQAEDVAVYYCQQHYDTPYTFGGGTKLEIKR
notes: Humanized anti-CD73 IgG1 with L234A/L235A
EC50 [9]: 0.011 nM
EC50 [7]: 6.06 nM
Kd [10]: 0.505 nM
Maximum signal height of analyte (nm) [10]: 0.168 nm
S E (kdis) [10]: 3.54e-06 s⁻¹
EC50 [11]: 0.015 nM
EC50 [12]: 0.011 nM
